The source of these data is PMC3171962.

The experiment has as its target hisPcrH (Pseudomonas aeruginosa T3S chaperone PcrH with an N-terminal polyHis tag) (P. aeruginosa PAO1) (UniProt Q9I325). The experiment is described as follows: SEC. (In general: In gel filtration, larger molecules generally elute earlier.)

Turning to “PopB (native, untagged P. aeruginosa T3S translocator) (from UniProt Q9I324 1-390) (natural protein)”, the stoichiometry N came out at 1.

“PopD (native, untagged P. aeruginosa T3S translocator) (from UniProt Q9I323 1-295) (natural protein)”: the stoichiometry N came to 1.

Broadly, the stoichiometry N is the number of molecules, sites or subunits per partner or assembly.
